Source: IntAct's records for PubMed 21245303

B1: Segment polarity protein dishevelled homolog DVL-2 (Homo sapiens), O14641 (parent)
chain: MAGSSTGGGGVGETKVIYHLDEEETPYLVKIPVPAERITLGDFKSVLQRPAGAKYFFKSMDQDFGVVKEEISDDNARLPCFNGRVVSWLVSSDNPQPEMAPPVHEPRAELAPPAPPLPPLPPERTSGIGDSRPPSFHPNVSSSHENLEPETETESVVSLRRERPRRRDSSEHGAGGHRTGGPSRLERHLAGYESSSTLMTSELESTSLGDSDEEDTMSRFSSSTEQSSASRLLKRHRRRRKQRPPRLERTSSFSSVTDSTMSLNIITVTLNMEKYNFLGISIVGQSNERGDGGIYIGSIMKGGAVAADGRIEPGDMLLQVNDMNFENMSNDDAVRVLRDIVHKPGPIVLTVAKCWDPSPQAYFTLPRNEPIQPIDPAAWVSHSAALTGTFPAYPGSSSMSTITSGSSLPDGCEGRGLSVHTDMASVTKAMAAPESGLEVRDRMWLKITIPNAFLGSDVVDWLYHHVEGFPERREARKYASGLLKAGLIRHTVNKITFSEQCYYVFGDLSGGCESYLVNLSLNDNDGSSGASDQDTLAPLPGATPWPLLPTFSYQYPAPHPYSPQPPPYHELSSYTYGGGSASSQHSEGSRSSGSTRSDGGAGRTGRPEERAPESKSGSGSESEPSSRGGSLRRGGEASGTSDGGPPPSRGSTGGAPNLRAHPGLHPYGPPPGMALPYNPMMVVMMPPPPPPVPPAVQPPGAPPVRDLGSVPPELTASRQSFHMAMGNPSEFFVDVM

Variants of: B1
Details: with axin1_human AXIN1, O15169
Sequence of axin1_human AXIN1, O15169 (O15169 whole entry): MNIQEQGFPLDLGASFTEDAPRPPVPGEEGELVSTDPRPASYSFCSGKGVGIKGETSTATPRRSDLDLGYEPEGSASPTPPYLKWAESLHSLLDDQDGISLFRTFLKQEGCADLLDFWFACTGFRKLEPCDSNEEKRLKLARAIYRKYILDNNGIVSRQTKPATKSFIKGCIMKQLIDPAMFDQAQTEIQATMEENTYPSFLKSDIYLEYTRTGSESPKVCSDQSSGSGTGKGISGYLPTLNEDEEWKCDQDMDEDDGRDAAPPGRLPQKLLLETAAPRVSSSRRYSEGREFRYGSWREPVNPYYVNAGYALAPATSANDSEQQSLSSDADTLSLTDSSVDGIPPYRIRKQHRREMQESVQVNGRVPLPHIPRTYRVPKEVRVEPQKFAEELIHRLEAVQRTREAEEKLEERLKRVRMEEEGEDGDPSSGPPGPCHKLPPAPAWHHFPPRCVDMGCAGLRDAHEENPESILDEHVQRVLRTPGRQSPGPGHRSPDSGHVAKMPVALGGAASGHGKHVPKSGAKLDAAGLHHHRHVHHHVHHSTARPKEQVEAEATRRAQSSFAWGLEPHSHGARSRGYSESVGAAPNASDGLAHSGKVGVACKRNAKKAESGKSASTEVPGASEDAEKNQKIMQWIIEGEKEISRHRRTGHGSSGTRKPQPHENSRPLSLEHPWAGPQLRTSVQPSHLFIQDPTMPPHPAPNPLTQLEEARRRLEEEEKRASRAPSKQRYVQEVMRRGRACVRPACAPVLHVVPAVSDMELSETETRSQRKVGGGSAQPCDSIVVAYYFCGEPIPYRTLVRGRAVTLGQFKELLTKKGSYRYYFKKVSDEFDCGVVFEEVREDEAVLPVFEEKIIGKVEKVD

| Variant | effect of a mutation on the interaction |
| --- | --- |
| Y27D | disrupting interaction strength |
